Assay results: patent US20090298778A1
Non-standard residues stand in square brackets, D forms with d. No end group written: not given here. Cit = NC(=O)NCCC[C@H](N)C(=O)O

B1: β60-74cit60, 72, 74 peptide (peptide)
peptide: [Cit]PAPPPISGGGY[Cit]A[Cit]-NH2
modifications: N-terminus assumed
SMILES: CC[C@H](C)[C@H](NC(=O)[C@@H]1CCCN1C(=O)[C@@H]1CCCN1C(=O)[C@@H]1CCCN1C(=O)[C@H](C)NC(=O)[C@@H]1CCCN1C(=O)[C@@H](N)CCCNC(N)=O)C(=O)N[C@@H](CO)C(=O)NCC(=O)NCC(=O)NCC(=O)N[C@@H](Cc1ccc(O)cc1)C(=O)N[C@@H](CCCNC(N)=O)C(=O)N[C@@H](C)C(=O)N[C@@H](CCCNC(N)=O)C(N)=O
B2: α36-50cit38, 42 peptide (peptide)
peptide: GP[Cit]VVE[Cit]HQSACKDS
B3: mixture of α36-50cit38, 42 and β60-74cit60, 72, 74 peptides (peptide)
peptide 1: GP[Cit]VVE[Cit]HQSACKDS
peptide 2: [Cit]PAPPPISGGGY[Cit]A[Cit]-NH2
modifications: also: mixture of two free peptides, not a complex

How the values were obtained:
[1] = biological target: mixture of ACPA-positive IgGs (IgG fraction of an equal-parts mixture of 38 sera from patients suffering from RA having a high serum ACPA titer); assay: cell-based or functional assay
[2] = biological target: mixture of ACPA-positive IgGs (IgG fraction of an equal-parts mixture of 38 sera from patients suffering from RA having a high serum ACPA titer); assay: competition ELISA: soluble competitor preincubated 2 h with IgG ACPA+ (16 µg/ml), binding to coated citrullinated fibrinogen

| Binder | amount of TNF-α secreted by macrophages; peptide at 0.8 mg/ml as competitor of IC formation on coated citrullinated fibrinogen [1] | amount of TNF-α secreted by macrophages; peptide at 4 mg/ml as competitor of IC formation on coated citrullinated fibrinogen [1] | percentage inhibition (plateau value) [2] |
| --- | --- | --- | --- |
| B1 | 40 pg/mL | < 20 pg/mL | 60% |
| B2 | – | – | 15% |
| B3 | – | – | 70% |
